The values that follow come from patent publication US20240141060A1 (Novartis, published 2024).

Assay [1] concerns the target T1, Recombinant Human 5′-Nucleotidase/CD73 Protein, CF (R&D Systems Cat: 5795-EN) (human, UniProt P21589 27-547).
T1 construct: Bought protein; also called Human CD73-His; recombinant human CD73; not shown: His tag
T1 sequence (looked up): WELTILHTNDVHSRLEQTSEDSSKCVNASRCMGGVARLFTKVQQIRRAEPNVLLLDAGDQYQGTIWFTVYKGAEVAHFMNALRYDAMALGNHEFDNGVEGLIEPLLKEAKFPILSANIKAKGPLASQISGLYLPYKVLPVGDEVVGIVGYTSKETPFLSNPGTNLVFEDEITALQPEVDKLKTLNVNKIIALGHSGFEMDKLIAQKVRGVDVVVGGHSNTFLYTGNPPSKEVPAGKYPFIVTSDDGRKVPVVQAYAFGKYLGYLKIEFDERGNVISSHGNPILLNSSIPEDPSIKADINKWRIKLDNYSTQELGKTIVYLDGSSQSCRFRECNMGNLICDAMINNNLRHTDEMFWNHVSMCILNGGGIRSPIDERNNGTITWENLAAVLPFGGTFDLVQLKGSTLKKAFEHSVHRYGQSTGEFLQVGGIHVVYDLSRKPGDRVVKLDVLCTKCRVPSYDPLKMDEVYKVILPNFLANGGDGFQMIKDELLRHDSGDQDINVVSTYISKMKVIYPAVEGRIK
Description: ForteBio Octet RED384 (BLI), whole IgG on AHQ sensors, 100 nM antigen, 1:1 model. Here is the method:
(§1) Briefly, ForteBio affinity measurements were performed by loading IgGs on-line onto AHQ sensors. Sensors were equilibrated off-line in assay buffer for 30 min and then monitored on-line for 60 seconds for baseline establishment. Sensors with loaded IgGs were exposed to 100 nM antigen for 3 minutes, and afterwards were transferred to assay buffer for 3 min for off-rate measurement. All kinetics were analyzed using the 1:1 binding model. Antigens used were: [0438] Human CD73-His: Recombinant Human 5′-Nucleotidase/CD73 Protein, CF from R&D Systems Cat: 5795-EN [0439] Mouse CD73-His: Recombinant Mouse 5′-Nucleotidase/CD73 Protein, CF from R&D Systems Cat: 4488-EN [0440] Cynomolgus CD73-His: Cynomolgus CD73/NT5E Protein (His Tag) from Sino Biological Cat: 90192-C08H-50
On the technique in general: In BLI a coated tip is dipped into the sample, and binding shifts an interference pattern.

For assay [2], the target named is T2, Recombinant Mouse 5′-Nucleotidase/CD73 Protein, CF (R&D Systems Cat: 4488-EN) (mouse, UniProt Q61503 29-549, limits assumed).
T2 construct: Bought protein; also called Mouse CD73-His; recombinant mouse CD73; not shown: His tag
T2 sequence (looked up): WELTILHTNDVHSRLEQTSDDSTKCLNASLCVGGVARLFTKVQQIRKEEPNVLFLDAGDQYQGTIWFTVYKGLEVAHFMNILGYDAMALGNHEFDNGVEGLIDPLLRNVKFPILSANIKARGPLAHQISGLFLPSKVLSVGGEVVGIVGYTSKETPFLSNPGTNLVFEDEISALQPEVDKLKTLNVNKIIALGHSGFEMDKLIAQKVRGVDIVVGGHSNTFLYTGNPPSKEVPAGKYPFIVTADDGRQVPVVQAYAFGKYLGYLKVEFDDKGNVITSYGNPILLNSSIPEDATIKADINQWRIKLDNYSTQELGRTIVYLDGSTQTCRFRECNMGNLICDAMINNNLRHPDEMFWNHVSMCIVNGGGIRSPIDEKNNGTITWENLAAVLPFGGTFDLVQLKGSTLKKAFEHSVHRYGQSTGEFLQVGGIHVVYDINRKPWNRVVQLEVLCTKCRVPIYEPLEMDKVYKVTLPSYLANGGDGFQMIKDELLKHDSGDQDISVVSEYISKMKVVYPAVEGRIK
Nature of the assay: ForteBio Octet RED384 (BLI), whole IgG on AHQ sensors, 1:1 model. Here is the method:
as §1

Assay [3] addresses T2, Recombinant Mouse 5′-Nucleotidase/CD73 …. Nature of the assay: restated binding profile (Octet).
Assay [4] addresses T3, Cynomolgus CD73/NT5E Protein (His Tag) (Sino Biological Cat: 90192-C08H-50) (cynomolgus monkey, UniProt A0A2K5V5U7 27-547).
T3 construct: treated as one protein; also called Cynomolgus CD73-His; recombinant cynomolgus monkey CD73; not shown: His tag
T3 sequence: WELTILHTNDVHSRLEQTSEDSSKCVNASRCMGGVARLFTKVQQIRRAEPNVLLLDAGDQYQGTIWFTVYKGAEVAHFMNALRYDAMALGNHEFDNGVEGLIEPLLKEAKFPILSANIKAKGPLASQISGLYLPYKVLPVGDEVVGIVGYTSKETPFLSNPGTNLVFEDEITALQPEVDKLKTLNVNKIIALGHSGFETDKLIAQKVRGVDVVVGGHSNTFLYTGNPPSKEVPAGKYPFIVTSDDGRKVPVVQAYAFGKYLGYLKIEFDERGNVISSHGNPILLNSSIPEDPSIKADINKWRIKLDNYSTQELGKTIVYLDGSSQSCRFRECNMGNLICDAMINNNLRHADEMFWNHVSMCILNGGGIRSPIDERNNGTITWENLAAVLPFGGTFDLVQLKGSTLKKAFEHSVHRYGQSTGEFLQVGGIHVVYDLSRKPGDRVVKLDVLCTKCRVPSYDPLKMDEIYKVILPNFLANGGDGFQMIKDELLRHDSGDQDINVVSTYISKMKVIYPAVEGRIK
Description: ForteBio Octet RED384 (BLI), whole IgG on AHQ sensors, 100 nM antigen, 1:1 model. Here is the method:
as §1

B1: 930.C (antibody, V domains shown)
VH: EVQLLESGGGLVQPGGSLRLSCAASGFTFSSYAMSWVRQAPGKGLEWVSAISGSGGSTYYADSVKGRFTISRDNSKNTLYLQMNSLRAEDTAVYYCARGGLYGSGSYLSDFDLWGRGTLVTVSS
VL: EIVLTQSPATLSVSPGERATLSCRASQSVGSNLAWYQQKPGQAPRLLIYGASTRATGIPARFSGSGSGTEFTLTISSLQSEDFAVYYCQQHNAFPYTFGGGTKVEIK
notes: also called 930 IgG1 format
One may read the Kd as the concentration at which binding is half-saturated. Consider B1, for which the Kd in assay [1] turned out to be 1.83 nM. The binding result in assay [2] is recorded as “no binding (tested: 100 nM antigen)”.

B2: 930 (antibody, V domains shown)
VH: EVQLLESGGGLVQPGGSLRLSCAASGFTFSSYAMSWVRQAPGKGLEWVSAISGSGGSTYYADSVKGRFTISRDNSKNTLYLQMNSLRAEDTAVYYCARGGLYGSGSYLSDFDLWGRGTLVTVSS
VL: EIVLTQSPATLSVSPGERATLSCRASQSVGSNLAWYQQKPGQAPRLLIYGASTRATGIPARFSGSGSGTEFTLTISSLQSEDFAVYYCQQHNAFPYTFGGGTKVEIK
notes: also called parental antibody 930; Lineage 3 parent
In the case of B2, the binding result in assay [3] was “no binding”.

B3: 379.C (antibody, V domains shown)
VH: EVQLLESGGGLVQPGGSLRLSCAASGFTFSRYAMSWVRQAPGKGLEWVSSISGTGGSTYYADSVKGRFTISRDNSKNTLYLQMNSLRAEDTAVYYCARGGLYGSGSYLSDFDLWGRGTLVTVSS
VL: EIVLTQSPATLSVSPGERATLSCRASQSVGSNLAWYQQKPGQAPRLLIYGASTRATGIPARFSGSGSGTEFTLTISSLQSEDFAVYYCQQHNAFPYTFGGGTKVEIK
notes: also called 379 IgG1 format
B3: the Kd in assay [4] was found to be 1.62 nM; in assay [1] it was 0.55 nM. For the same molecule, the binding result in assay [2] was “no binding (tested: 100 nM antigen)”.

B4: 376 (antibody, V domains shown)
VH: EVQLLESGGGLVQPGGSLRLSCAASGFTFRSYAMSWVRQAPGKGLEWVSAITGSGGLTYYADSVKGRFTISRDNSKNTLYLQMNSLRAEDTAVYYCARGGLYGSGSYLSDFDLWGRGTLVTVSS
VL: EIVLTQSPATLSVSPGERATLSCRASQSVGSNLAWYQQKPGQAPRLLIYGASTRATGIPARFSGSGSGTEFTLTISSLQSEDFAVYYCQQHNAFPYTFGGGTKVEIK
notes: also called progeny antibody 376; Lineage 3 child
As to B4, the binding result in assay [3] is “no binding”.

B5: 374.C (antibody, V domains shown)
VH: EVQLLESGGGLVQPGGSLRLSCAASGFTFSYNAMSWVRQAPGKGLEWVSSISGTGGSTYYADSVKGRFTISRDNSKNTLYLQMNSLRAEDTAVYYCARGGLYGSGSYLSDFDLWGRGTLVTVSS
VL: EIVLTQSPATLSVSPGERATLSCRASQSVGSNLAWYQQKPGQAPRLLIYGASTRATGIPARFSGSGSGTEFTLTISSLQSEDFAVYYCQQHNAFPYTFGGGTKVEIK
For B5, the Kd in assay [4] is 0.103 nM; in assay [1], 0.358 nM. The binding result in assay [2] was “no binding (tested: 100 nM antigen)”.

B6: 374 (antibody, V domains shown)
VH: EVQLLESGGGLVQPGGSLRLSCAASGFTFSYNAMSWVRQAPGKGLEWVSSISGTGGSTYYADSVKGRFTISRDNSKNTLYLQMNSLRAEDTAVYYCARGGLYGSGSYLSDFDLWGRGTLVTVSS
VL: EIVLTQSPATLSVSPGERATLSCRASQSVGSNLAWYQQKPGQAPRLLIYGASTRATGIPARFSGSGSGTEFTLTISSLQSEDFAVYYCQQHNAFPYTFGGGTKVEIK
notes: also called Lineage 3 child
Take B6: the binding result in assay [3] was “no binding”.

B7: 373 (antibody, V domains shown)
VH: EVQLLESGGGLVQPGGSLRLSCAASGFTFHRYAMSWVRQAPGKGLEWVSAISGSGMNTYYADSVKGRFTISRDNSKNTLYLQMNSLRAEDTAVYYCARGGLYGSGSYLSDFDLWGRGTLVTVSS
VL: EIVLTQSPATLSVSPGERATLSCRASQSVGSNLAWYQQKPGQAPRLLIYGASTRATGIPARFSGSGSGTEFTLTISSLQSEDFAVYYCQQHNAFPYTFGGGTKVEIK
notes: also called Lineage 3 child
Take B7: the binding result in assay [3] is “no binding”.

B8: 377 (antibody, V domains shown)
VH: EVQLLESGGGLVQPGGSLRLSCAASGFTFKSYAMSWVRQAPGKGLEWVSAISGSGSYTYYADSVKGRFTISRDNSKNTLYLQMNSLRAEDTAVYYCARGGLYGSGSYLSDFDLWGRGTLVTVSS
VL: EIVLTQSPATLSVSPGERATLSCRASQSVGSNLAWYQQKPGQAPRLLIYGASTRATGIPARFSGSGSGTEFTLTISSLQSEDFAVYYCQQHNAFPYTFGGGTKVEIK
notes: also called progeny antibody 377; Lineage 3 child
For B8, the binding result in assay [3] is “no binding”.

B9: 377.C (antibody, V domains shown)
VH: EVQLLESGGGLVQPGGSLRLSCAASGFTFKSYAMSWVRQAPGKGLEWVSAISGSGSYTYYADSVKGRFTISRDNSKNTLYLQMNSLRAEDTAVYYCARGGLYGSGSYLSDFDLWGRGTLVTVSS
VL: EIVLTQSPATLSVSPGERATLSCRASQSVGSNLAWYQQKPGQAPRLLIYGASTRATGIPARFSGSGSGTEFTLTISSLQSEDFAVYYCQQHNAFPYTFGGGTKVEIK
notes: also called 377 IgG1 format
Consider B9, for which the Kd in assay [4] was determined as 1.42 nM; in assay [1], 0.572 nM. For the same molecule, the binding result in assay [2] was “no binding (tested: 100 nM antigen)”.

B10: 373.C (antibody, V domains shown)
VH: EVQLLESGGGLVQPGGSLRLSCAASGFTFHRYAMSWVRQAPGKGLEWVSAISGSGMNTYYADSVKGRFTISRDNSKNTLYLQMNSLRAEDTAVYYCARGGLYGSGSYLSDFDLWGRGTLVTVSS
VL: EIVLTQSPATLSVSPGERATLSCRASQSVGSNLAWYQQKPGQAPRLLIYGASTRATGIPARFSGSGSGTEFTLTISSLQSEDFAVYYCQQHNAFPYTFGGGTKVEIK
As for B10, the Kd in assay [4] worked out at 0.914 nM; in assay [1], 0.621 nM. In addition, the binding result in assay [2] was “no binding (tested: 100 nM antigen)”.

B11: 379 (antibody, V domains shown)
VH: EVQLLESGGGLVQPGGSLRLSCAASGFTFSRYAMSWVRQAPGKGLEWVSSISGTGGSTYYADSVKGRFTISRDNSKNTLYLQMNSLRAEDTAVYYCARGGLYGSGSYLSDFDLWGRGTLVTVSS
VL: EIVLTQSPATLSVSPGERATLSCRASQSVGSNLAWYQQKPGQAPRLLIYGASTRATGIPARFSGSGSGTEFTLTISSLQSEDFAVYYCQQHNAFPYTFGGGTKVEIK
notes: also called progeny antibody 379; Lineage 3 child
For B11, in assay [3], the binding result is given as “no binding”.

B12: 376.C (antibody, V domains shown)
VH: EVQLLESGGGLVQPGGSLRLSCAASGFTFRSYAMSWVRQAPGKGLEWVSAITGSGGLTYYADSVKGRFTISRDNSKNTLYLQMNSLRAEDTAVYYCARGGLYGSGSYLSDFDLWGRGTLVTVSS
VL: EIVLTQSPATLSVSPGERATLSCRASQSVGSNLAWYQQKPGQAPRLLIYGASTRATGIPARFSGSGSGTEFTLTISSLQSEDFAVYYCQQHNAFPYTFGGGTKVEIK
notes: also called 376 IgG1 format
Take B12: the Kd in assay [1] was found to be 0.301 nM. The binding result in assay [2] was “no binding (tested: 100 nM antigen)”.
